Legend:
PUF60 WT [1] = target: T1, PUF60 WT (human, UniProt Q9UHX1 1-559); assay: EMSA; Kd only in figure; Hill 2.6; similar affinity to cr probe; EMSA: 40 mM Tris pH 8.0, 5 mM MgCl2, 0.25 ug/uL heparin, 0.01% Triton, 1 mM DTT, room temperature 20 min; 6% native PAGE in 0.5x TBE at 4 C; 15-17 nM biotin-RNA; conditions: protein: recombinant; tags: 2xHis-lipoyl-TEV, removed by TEV; label: 5' biotin; single strand
U2AF65 WT [2] = target: T2, U2AF65 WT (human, UniProt P26368 1-475); assay: EMSA; Kd shown only in figure; 0.13-4.2 uM protein; similar affinity to cr probe; EMSA: 40 mM Tris pH 8.0, 5 mM MgCl2, 0.25 ug/uL heparin, 0.01% Triton, 1 mM DTT, room temperature 20 min; 6% native PAGE in 0.5x TBE at 4 C; 15-17 nM biotin-RNA; conditions: protein: recombinant; tags: N-terminal GST (pGEX6P, eluted with glutathione); label: 5' biotin; single strand
PUF60 WT [3] = target: T1, PUF60 WT; assay: EMSA; Kd only in figure; Hill 3.0; similar affinity to can probe; EMSA: 40 mM Tris pH 8.0, 5 mM MgCl2, 0.25 ug/uL heparin, 0.01% Triton, 1 mM DTT, room temperature 20 min; 6% native PAGE in 0.5x TBE at 4 C; 15-17 nM biotin-RNA; conditions: protein: recombinant; tags: 2xHis-lipoyl-TEV, removed by TEV; label: 5' biotin; single strand
U2AF65 WT [4] = target: T2, U2AF65 WT; assay: EMSA; Kd shown only in figure; 0.13-4.2 uM protein; similar affinity to can probe; EMSA: 40 mM Tris pH 8.0, 5 mM MgCl2, 0.25 ug/uL heparin, 0.01% Triton, 1 mM DTT, room temperature 20 min; 6% native PAGE in 0.5x TBE at 4 C; 15-17 nM biotin-RNA; conditions: protein: recombinant; tags: N-terminal GST (pGEX6P, eluted with glutathione); label: 5' biotin; single strand
PUF60 WT [5] = target: T1, PUF60 WT; assay: EMSA; strong binding; 0.14-1.25 uM protein, 15 nM RNA; EMSA: 40 mM Tris pH 8.0, 5 mM MgCl2, 0.25 ug/uL heparin, 0.01% Triton, 1 mM DTT, room temperature 20 min; 6% native PAGE in 0.5x TBE at 4 C; 15-17 nM biotin-RNA; conditions: protein: recombinant; tags: 2xHis-lipoyl-TEV, removed by TEV; label: 5' biotin; single strand

T1 sequence (Q9UHX1 whole entry): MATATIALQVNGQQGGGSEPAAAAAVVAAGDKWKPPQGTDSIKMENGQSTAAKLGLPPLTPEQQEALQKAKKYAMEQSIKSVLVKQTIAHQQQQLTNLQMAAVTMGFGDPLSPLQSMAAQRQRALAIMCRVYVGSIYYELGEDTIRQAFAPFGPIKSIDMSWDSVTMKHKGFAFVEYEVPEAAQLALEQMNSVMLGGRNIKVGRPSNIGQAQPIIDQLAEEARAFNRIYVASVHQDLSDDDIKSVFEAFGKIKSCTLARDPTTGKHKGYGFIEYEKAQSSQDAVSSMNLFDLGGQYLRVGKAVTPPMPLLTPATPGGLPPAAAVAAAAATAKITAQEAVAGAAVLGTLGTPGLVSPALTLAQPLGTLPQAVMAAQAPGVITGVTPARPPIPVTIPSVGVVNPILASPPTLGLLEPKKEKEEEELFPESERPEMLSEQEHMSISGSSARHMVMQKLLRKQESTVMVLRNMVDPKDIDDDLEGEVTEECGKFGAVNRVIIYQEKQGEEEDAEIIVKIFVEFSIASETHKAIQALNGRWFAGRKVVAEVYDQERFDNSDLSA
T2 sequence (P26368 whole entry, one chain of several): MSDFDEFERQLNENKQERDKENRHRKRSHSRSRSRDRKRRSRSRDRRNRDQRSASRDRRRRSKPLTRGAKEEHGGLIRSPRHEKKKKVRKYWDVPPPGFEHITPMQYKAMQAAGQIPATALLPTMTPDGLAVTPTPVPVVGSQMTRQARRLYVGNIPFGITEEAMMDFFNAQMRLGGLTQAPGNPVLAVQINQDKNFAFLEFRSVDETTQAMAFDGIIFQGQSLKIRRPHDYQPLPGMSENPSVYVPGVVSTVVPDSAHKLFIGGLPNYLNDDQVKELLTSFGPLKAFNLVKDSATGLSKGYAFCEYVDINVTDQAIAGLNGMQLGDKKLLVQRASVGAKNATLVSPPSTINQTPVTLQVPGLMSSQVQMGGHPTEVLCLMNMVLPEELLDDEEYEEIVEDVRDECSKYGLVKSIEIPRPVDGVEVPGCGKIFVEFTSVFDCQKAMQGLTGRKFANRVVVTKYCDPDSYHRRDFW

UUUUUUUGUUUUGUUUUGUGUUUUUUGAUAGA (ssRNA) [UBE2F-can3'ss-32]: binds (PUF60 WT [1]); binds (U2AF65 WT [2]).

CUUUUUGUUUCCUUUUUUUUUUAAUUUAAAGG (ssRNA) [UBE2F-cr3'ss-32]: binds (PUF60 WT [3]); binds (U2AF65 WT [4]).

UUCGUGCUGACCUGUCCCUUUUUUUUCCACAGC (ssRNA) [AdML]: binds (PUF60 WT [5]).
